Where no end group is shown, it is not given here.
B1: NH2-NSFDDWLAKGG-COOH (peptide)
peptide: H-NSFDDWLAKGG-OH
notes: free peptide, C-terminal carboxylic acid
B2: NH2-ADYLAEYHGG-COOH (peptide)
peptide: H-ADYLAEYHGG-OH
notes: as for B1
B3: NH2-WTHPQFEQK-COOH (peptide)
peptide: H-WTHPQFEQK-OH
notes: as for B1
B4: NH2-SAWSHPQFEK-COOH (peptide)
peptide: H-SAWSHPQFEK-OH
notes: free peptide, C-terminal carboxylic acid; bought from IBA; also called Strep-tag II peptide; Strep-Tag II

The binders below were run against T1, Prostate Specific Antigen (human, UniProt P07288 25-261) (assay: peptide array, extension library, 3Z linker).
T1 construct: also called PSA
T1 sequence (P07288 25-261 limits assumed): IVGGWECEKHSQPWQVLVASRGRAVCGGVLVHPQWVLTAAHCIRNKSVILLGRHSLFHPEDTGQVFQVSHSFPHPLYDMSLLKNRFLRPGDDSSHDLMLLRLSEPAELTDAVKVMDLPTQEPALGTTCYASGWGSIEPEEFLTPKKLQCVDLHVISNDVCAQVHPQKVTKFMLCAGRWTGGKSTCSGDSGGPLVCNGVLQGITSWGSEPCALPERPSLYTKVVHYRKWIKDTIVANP
SEWTVYAGN (also: array-bound via 3Z linker): binds. GDWTVYAGN (also: array-bound via 3Z linker): binds. SCRSILYGQ (also: array-bound via 3Z linker): binds. SCRSILYGP (also: array-bound via 3Z linker): binds. NGFEVYLPG (also: array-bound via 3Z linker): binds. TGWEVHLGK (also: array-bound via 3Z linker): binds. TDFEVYLPK (also: array-bound via 3Z linker): binds. GQFEVYLPG (also: array-bound via 3Z linker): binds. GQWEVHLGK (also: array-bound via 3Z linker): binds. SCRSILYND (also: array-bound via 3Z linker): binds.

What follows are binders tested against T1, Prostate Specific Antigen (assay: peptide array, double substitution/deletion library).
ALDWQVYAGFG: binds. GTDFEVYFPKI: binds. GTGWEVHLGKG: binds.

What follows are binders tested against T1, Prostate Specific Antigen (assay: peptide array, 5-mer library, 5Z linker).
FEVYL (also: array-bound via 5Z linker): binds. WEVHL (also: array-bound via 5Z linker): binds. WTVYA (also: array-bound via 5Z linker): binds. RSILY (also: array-bound via 5Z linker): binds.

The binders below were run against T2, Taq polymerase (UniProt P19821 1-832) (assay: peptide array, extension library, 3Z linker).
T2 sequence (P19821 whole entry): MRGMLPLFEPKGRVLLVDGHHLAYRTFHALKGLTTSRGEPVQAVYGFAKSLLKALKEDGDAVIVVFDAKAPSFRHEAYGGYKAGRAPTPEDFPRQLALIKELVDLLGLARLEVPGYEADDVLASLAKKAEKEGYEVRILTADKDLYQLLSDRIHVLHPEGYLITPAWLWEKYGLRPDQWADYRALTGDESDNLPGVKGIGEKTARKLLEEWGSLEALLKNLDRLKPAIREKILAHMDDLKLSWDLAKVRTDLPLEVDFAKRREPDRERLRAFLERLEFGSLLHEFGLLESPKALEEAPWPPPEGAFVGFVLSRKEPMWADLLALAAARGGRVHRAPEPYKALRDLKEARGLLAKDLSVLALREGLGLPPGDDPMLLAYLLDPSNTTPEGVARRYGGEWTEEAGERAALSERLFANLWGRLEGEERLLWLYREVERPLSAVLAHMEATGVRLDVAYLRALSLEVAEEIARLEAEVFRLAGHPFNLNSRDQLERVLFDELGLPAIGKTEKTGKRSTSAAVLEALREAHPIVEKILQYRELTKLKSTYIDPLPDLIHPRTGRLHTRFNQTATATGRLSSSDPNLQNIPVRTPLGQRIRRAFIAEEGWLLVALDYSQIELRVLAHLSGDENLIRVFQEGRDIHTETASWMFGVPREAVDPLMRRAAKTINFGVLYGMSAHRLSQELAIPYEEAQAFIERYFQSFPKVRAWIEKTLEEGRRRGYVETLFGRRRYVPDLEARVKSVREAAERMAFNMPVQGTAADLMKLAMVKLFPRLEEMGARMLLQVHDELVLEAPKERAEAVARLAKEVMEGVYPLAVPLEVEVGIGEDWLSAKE
FGWKAEKFN (also: array-bound via 3Z linker): binds. YEWTKVKNY (also: array-bound via 3Z linker): binds. YSWTKVKDY (also: array-bound via 3Z linker): binds. QQHYFEFEK (also: array-bound via 3Z linker): binds. GEHYFEFQQ (also: array-bound via 3Z linker): binds. GQHEFSFGT (also: array-bound via 3Z linker): binds. YKWKEDWKW (also: array-bound via 3Z linker): binds. RSWDWDWKK (also: array-bound via 3Z linker): binds. GEHYFEFAP (also: array-bound via 3Z linker): binds. KKWDWDWKW (also: array-bound via 3Z linker): binds. YEHEFSFGT (also: array-bound via 3Z linker): binds.

These binders were tested against T3, streptavidin (UniProt P22629 37-163, limits assumed) (assay: SPR, Biacore X100, streptavidin on CM5 chip, peptide in solution).
T3 construct: amine-coupled to a CM5 chip for SPR; also called SA
T3 sequence (P22629 37-163 limits assumed): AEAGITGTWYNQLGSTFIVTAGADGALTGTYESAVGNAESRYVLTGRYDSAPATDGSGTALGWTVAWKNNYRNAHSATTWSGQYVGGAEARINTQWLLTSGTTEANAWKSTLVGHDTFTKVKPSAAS
From the text: A selection of streptavidin peptide binders listed in Table 15 were synthesized using standard column-based synthesis techniques by UW Biotechnology center (Madison, Wis.) or by Peptide2.0 (Chantilly, Va.) at 98-99% purity. Strep-tag II peptide NH2-[…]-COOH was purchased from IBA GmbH (Goettingen, Germany). Synthesized peptides were then characterized by Surface Plasmon Resonance (SPR) to identify binding characteristics including the association rate constant (kₛ), dissociation rate constant (kd), and equilibrium dissociation […] (kd/kₐ=KD). In one aspect, SPR experiments were performed by using Biacore X100 instrument (GE Healthcare). Preliminarily, 60 μl of 100 μg/ml streptavidin in 10 mM Na-acetate, pH5.0 was immobilized to flow cell 2 (Fc2) of a sensor chip CM5 (GE Healthcare) using Amine Coupling Kit (GE Healthcare) at 20° C. for 6 min. Peptide stock solutions were prepared at 5 or 10 mM concentration in water and diluted in HBS-EP+ (GE Healthcare) buffer before SPR experiments. Peptide binding was performed in a multiple kinetics mode using HBS-EP+ as a running buffer and 0.2 M NaCl, 10 mM NaOH or 10 mM HCl-glycine, […] as regeneration buffer. Binding kinetics parameters were calculated with Biacore X100 software.
With H-AFDYLAQYHGG-NH2 (free peptide) [NH2-AFDYLAQYHGG-amide] the Kd was 1.52 µM, the koff was 0.0354 s⁻¹ and the kon was 23300 M⁻¹ s⁻¹. For B1, the Kd was 11.3 µM. Binder H-WTHPQFEQPKA-NH2 (free peptide) [NH2-WTHPQFEQPKA-amide] has a Kd of 7.9 µM. B2 showed a Kd of 96 µM. Work on B3 yielded a Kd of 15.5 µM. In the case of B4, the Kd is reported as 49.8 µM. With H-AFPDYLAEYHGG-NH2 (free peptide) [NH2-AFPDYLAEYHGG-amide] the Kd was 0.043 µM, the koff was 0.00128 s⁻¹ and the kon was 30100 M⁻¹ s⁻¹.

The binders below were run against T2, Taq polymerase (assay: peptide array, 5-mer library, 5Z linker).
WTKVK (also: array-bound via 5Z linker): binds. WDWDW (also: array-bound via 5Z linker): binds. WKEDW (also: array-bound via 5Z linker): binds. HEFSF (also: array-bound via 5Z linker): binds. WKAEK (also: array-bound via 5Z linker): binds. HYFEF (also: array-bound via 5Z linker): binds.

What follows are binders tested against T4, Tumor Necrosis Factor Alpha (human, UniProt P01375 77-233) (assay: peptide array, 5-mer library, 5Z linker).
T4 construct: also called TNFα; TNF-α
T4 sequence (P01375 77-233 limits assumed): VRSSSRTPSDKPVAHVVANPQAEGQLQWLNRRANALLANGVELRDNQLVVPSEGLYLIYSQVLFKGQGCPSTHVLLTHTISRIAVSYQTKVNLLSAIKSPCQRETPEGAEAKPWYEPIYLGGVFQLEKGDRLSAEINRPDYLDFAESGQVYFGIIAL
AIAIF (also: array-bound via 5Z linker): binds. TAVFV (also: array-bound via 5Z linker): binds. VTVYV (also: array-bound via 5Z linker): binds. ALYLF (also: array-bound via 5Z linker): binds.

These binders were tested against T4, Tumor Necrosis Factor Alpha (assay: peptide array, extension library, 3Z linker).
DGALYLFGN (also: array-bound via 3Z linker): binds. QAAIAIFGG (also: array-bound via 3Z linker): binds. TSVTVYVNN (also: array-bound via 3Z linker): binds. GGTAVFVNT (also: array-bound via 3Z linker): binds.

Source: patent publication US20160305952A1 (ROCHE SEQUENCING SOLUTIONS, published 2016)
